Results from the supplement of paper PMC10567573.

B1: KRT18 (parent)
chain: RVRSLETENRRLESKIREHLEKKG

Variants of: B1
Assay: protein stability index of a GFP-peptide fusion (GPS, HEK-293T) (PSI 1-6); higher = more stable
Conditions: c terminus: a fixed tail appended
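Note: lentivirally expressed fusions sorted by FACS into six bins by GFP to DsRed ratio, PSI derived from sequencing read proportions per bin multiplied by bin number.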

Protein stability index: each site, then its substitutions
I16: N 5.56; E 3.79; Q 5.09; M 5.17; C 4.79; G 5.45; S 5.16; D 5.71; P 5.28; V 4.37; T 4.29; L 4.32; W 4.96; Y 4.63
K15: W 3.1; F 3.04; C 4.06; P 5.23; T 4.76; I 4.41; D 3.69; M 4.02; E 5.16; S 5.16; Q 4.56; L 3.88; R 4.67; H 3.6; A 4.53; N 5.24; Y 4.7
L5: C 3.41; Y 4.32; D 4.64; N 5.06; V 5.01; Q 4.67; W 4.29; A 4.54; T 4.35; K 3.99; M 4.77; F 4.5
R11: L 4.31; W 3.69; T 4.94; N 4.35; D 5.08; V 4.79; S 5.33; A 4.43; G 3.96; Y 3.33; E 4.73; I 4.47; C 4.96; F 4.74; H 4.91
K23: D 5.45; C 3.86; V 4.14; N 4.78; S 4.52; T 4.22; G 4.75; Q 4.32; F 3.76; I 3.2; H 3.96; L 3.87; A 4.56
S4: R 4.29; E 4.48; P 4.58; K 4.26; I 2.97; M 3.64; C 3.5; A 4.24; H 3.84; F 4.29; Y 3.3; G 4.35; N 4.32; V 3.54
R3: C 3.42; M 3.72; W 3.43; A 4.51; L 4.51; F 3.46; T 4.46; H 3.61; Y 3.15; V 4.44; I 3.91; P 4.42; Q 4.37; E 4.85; G 4.64; D 4.22; K 4.45
E21: A 4.21; Q 3.74; W 3.32; L 3.19; C 4.28; G 4.62; R 3.99; K 3.75; H 4.43; V 3.93; M 4.15; I 3.9; T 4.2; N 4.11; D 4.98; S 4.36; F 3.67
E13: N 4.89; M 3.26; F 2.16; P 4.33; S 3.91; H 4.21; I 2.37; T 4.1; V 3.74; A 4.22; D 2.98; R 3.99; Q 3.95; K 4.84; Y 3.05; W 3.85; C 4.3; G 4.75
G24: C 3.69
K22: V 4.52; S 4.05; P 4.82; T 4.45; F 4.16; N 4.09; Q 4.89; G 4.06; E 4.86; Y 4.08; A 3.65; C 4.61; M 3.73; W 3.02; L 4.12; I 3.85; R 4.21
N9: Y 3.85; R 3.81; Q 4.74; W 1.85; H 4.51; E 4.97; G 3.48; V 1.9; F 2.3; D 5.09; M 2.85; L 1.79; I 2; A 2.73
R10: H 4.74; F 4.76; P 5.08; Y 4.94; K 4.36; I 4.42; T 4.71; C 4; A 4.16; E 4.79; V 5.08; S 4.88; G 4.68; D 4.3; M 5.26; L 4.49; N 4.69
H19: V 4.49; T 5.01; Q 5.04; D 5.22; S 4.79; N 4.78; A 4.46; F 4; I 4.03; P 5.53; C 3.82; E 5.26; G 5.48; W 2.25
L20: W 3.95; I 4.79; V 4.94; T 4.99; E 5.7; A 5.1; K 4.96; R 5.23; N 4.78; G 4.97; F 4.59; M 5.12; P 5.58; S 5.44; H 5.35
L12: Q 5.19; G 5.35; P 5.41; H 5.05; E 5.88; Y 4.91; K 5.49; N 5.35; M 3.02; D 4.21; T 5.22; C 4.78; I 4.77; V 4.69
E8: H 4.36; I 4.4; Q 3.38; M 4.32; L 4.33; R 3.46; G 4.42; K 3.89; T 4.2; C 4.22; Y 3.82; A 4.08; D 3.96
V2: C 4.78; H 4.07; L 3.55; N 4.16; D 4.83; K 4.77; Y 4.54; Q 4.44; E 5.32; W 3.9; T 5.11; P 4.65; M 3.82; I 4.21; A 4.64
R17: I 4.37; K 4.39; L 4.22; V 4.96; F 4.55; C 5.24; Y 4.92; N 4.25; P 4.84; A 3.79; H 5.06; T 5; M 4.53; S 5.14; D 5.49; G 5.38; Q 4.54
E6: P 4.44; C 4.43; F 3.32; Y 2.53; V 4.11; I 3.84; N 3.33; D 4.62; T 3.01; R 3.96; L 2.31; M 3.4; K 4.02
S14: A 4.6; Y 4.24; G 4.96; I 4.38; N 3.68; L 4.59; K 4.19; V 4.16; H 4.92; C 3.84; P 4.86; Q 4.99; W 3.98; T 4.47; E 4.78
T7: D 4.17; R 4.1; P 4.9; Y 4.47; G 4.22; S 4.25; V 3.82; E 5.17; M 4.05; C 4.97; F 4.79; N 4.34; Q 4.13; L 4.54
E18: R 3.99; F 3.22; I 4.29; K 3.95; Y 4.07; S 4.55; H 3.99; Q 3.75; N 4.52; W 4.51; T 4.25; G 4.91; V 3.88; D 4.53; P 4.88; C 3.81; M 3.94; A 4.46
